Results as given in patent US20150266963A1 (ARGEN X B V, published 2015).

Columns and labels:
[1] = target: T1, human CD70 expressed on the surface of cells (human, UniProt P32970 1-193); test: FACS MFI at 37 C, SU-DHL-6 cells; reference SGN70
T1 construct: whole, on cells; also called cell surface expressed CD70; CD70 on cells
T1 sequence (looked up): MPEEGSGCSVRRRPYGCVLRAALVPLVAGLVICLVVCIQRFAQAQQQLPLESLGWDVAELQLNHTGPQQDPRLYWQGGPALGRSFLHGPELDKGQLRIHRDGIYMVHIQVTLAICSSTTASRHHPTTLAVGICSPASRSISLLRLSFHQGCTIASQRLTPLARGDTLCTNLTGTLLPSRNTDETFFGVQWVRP
Procedure: (§1) Several cancer cell lines were tested by FACS analysis for binding of ARGX-110 and SGN70 (described in US2010/0129362) at saturating mAb concentrations (at least 2 μg/ml). This was either done at 4° C. (1 hour incubation of cells with mAbs) or at 37° C. (15 minutes incubation of cells with mAbs). Binding was detected using anti-hIgG1-Fc-FITC (AF006, Binding Site) or anti-hIgG1-Fc-PE antibody (eBioscience, 12-4998). Fluorescence was measured using a flow cytometer.

[2] = target: T1, human CD70 expressed on the surface of …; test: FACS MFI at 37 C, U87MG cells; reference SGN70
Procedure: as §1

[3] = target: T1, human CD70 expressed on the surface of …; test: FACS MFI at 37 C, HH cells; reference SGN70
Procedure: as §1

[4] = target: T1, human CD70 expressed on the surface of …; test: FACS MFI at 37 C, Mec1 cells; reference SGN70
Procedure: as §1

[5] = target: T1, human CD70 expressed on the surface of …; test: FACS MFI at 37 C, JVM-2 cells; reference SGN70
Procedure: as §1

[6] = target: T1, human CD70 expressed on the surface of …; test: flow cytometry on U266 cells, 1 h at 4 °C, anti-hIgG1-Fc-FITC or anti-hIgG-Fc-PE [panel U266]
Procedure: […] This was either done at 4° C. (1 hour incubation of cells with mAbs) or at 37° C. (15 minutes incubation of cells with mAbs). Binding was detected using anti-hIgG1-Fc-FITC (AF006, Binding Site) or anti-hIgG1-Fc-PE antibody (eBioscience, 12-4998). Fluorescence was measured using a flow cytometer.

[7] = target: T1, human CD70 expressed on the surface of …; test: FACS MFI at 37 C, L428 cells; reference SGN70
Procedure: as §1

[8] = target: T1, human CD70 expressed on the surface of …; test: FACS MFI at 37 C, Caki-1 cells; reference SGN70
Procedure: as §1

[9] = target: T2, mouse Flag-TNC-CD70 (mouse, UniProt O55237 45-195); test: ELISA; mouse Flag-TNC-CD70 captured by anti-Flag mAb
T2 construct: extracellular domain; also called mouse CD70; not shown: Flag tag and TNC trimerisation domain
T2 sequence (looked up): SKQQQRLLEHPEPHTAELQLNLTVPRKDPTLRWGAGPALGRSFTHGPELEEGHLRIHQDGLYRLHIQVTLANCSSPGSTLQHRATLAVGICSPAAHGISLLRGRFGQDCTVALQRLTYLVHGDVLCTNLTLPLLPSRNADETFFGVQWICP

Signal in FACS of ARGX-110/signal in FACS of SGN70 [1]: 2.4 ratio | Signal in FACS of ARGX-110/signal in FACS of SGN70 [2]: 2 ratio | Signal in FACS of ARGX-110/signal in FACS of SGN70 [3]: 1.7 ratio | Signal in FACS of ARGX-110/signal in FACS of SGN70 [4]: 1.2 ratio | Signal in FACS of ARGX-110/signal in FACS of SGN70 [5]: 2.4 ratio | EC50 (read off the curve) [6]: ~0.1 µg/mL | Signal in FACS of ARGX-110/signal in FACS of SGN70 [7]: 1.4 ratio | Signal in FACS of ARGX-110/signal in FACS of SGN70 [8]: 1.9 ratio
B1: ARGX-110 (non-fucosylated 41D12 human IgG1) (antibody, V domains shown)
VH: EVQLVESGGGLVQPGGSLRLSCAASGFTFSVYYMNWVRQAPGKGLEWVSDINNEGGTTYYADSVKGRFTISRDNSKNSLYLQMNSLRAEDTAVYYCARDAGYSNHVPIFDSWGQGTLVTVSS
VL: QAVVTQEPSLTVSPGGTVTLTCGLKSGSVTSDNFPTWYQQTPGQAPRLLIYNTNTRHSGVPDRFSGSILGNKAALTITGAQADDEAEYFCALFISNPSVEFGGGTQLTVLG
notes: also called 41D12 (ARGX-110)
binding result [9]: no binding (tested: dilution series from 10 µg/ml)
